Data: the RNAGym collection of RNA variant scans (doi:10.1073/pnas.2313332121)

B1: TPR t1 (parent)
chain: GACCAAUCUGCCCUCAGAGCUCGAGAACAUCUUCGGAUGCAGAGGAGGCAGGCUUCGGUGGCGCGAUAGCGCCAACGUCCUCAACCUCCAAUGCAUCCCACCACAUGAUGAUGCCUGAAGAGCCUUGGUUUUUUG

Variants of: B1
Test: polymerase ribozyme fitness, log enrichment relative to wild type (log ratio); higher = more active; in vitro selection for triplet polymerase activity
Procedure, shortened: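 Each subunit of a heterodimeric triplet polymerase ribozyme was represented by a PCR-built, transcribed mutant library that underwent triplicate single-round in vitro selection with frozen incubation at −7 °C. Extended constructs were recovered by gel excision, streptavidin-bead capture and RT-PCR, and Illumina sequencing of input and output libraries kept genotypes with ≥10 input reads and ≥1 read per output. Fitness is the logarithm of genotype enrichment relative to wild-type enrichment, from inverse-variance-weighted replicate averages, with a logarithm base of 2.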

| Variant | polymerase ribozyme fitness (log ratio) |
| --- | --- |
| GACCAAUCUGCCCUCAGAGCUCGAGAACAUCUUCGGAUGCAGAGGAGGCAGGCUUCGGUGGCCCGAUAGCGCCAACGUCCUCAACCUACAAUGAAUCCCACCACAUGAUGAUGCCUGAAGAGCCUUGGUUUUUUG [G63C C88A C94A] | -2.47 |
| GACCAAUCUGCCCUCAGAGCUCGAGAACAUCUUCGGAUGCAGAGGAGGCAGGCUUCGGUGGCCCGAUAGCGCCAACGUCCUCAACCUCCAAUACAUCCCACCACAUGAUGAUGCCUGAAGAACCUUGGUUUUUUG [G63C G93A G122A] | -1.99 |
| GACCAAUCUGCCCUCAGAGCUCGAGAACAUCUUCGGAUGCAGAGGAGGCAGGCUUCGGUGGCCCGAUAGCGCCAAAGUCCUCAACCUCCACUGCAUCCCCCCACAUGAUGAUGCGUGAAGAGACUUGGUUUUUUG [G63C C76A A91C A100C C115G C123A] | -4.91 |
| GACCAAUCUGCCCUCAGAGCUCGAGAACAUCUUCGGAUGCAGAGGAGGCAGGCUUCGGUGGCCCAAUAGCGCCAACGUCCUCAACCUCCAAUGCAUCCCACCACAUGAUGAUGCCUGAAGAGCCUUGGUUUUUUG [G63C G65A] | -5.84 |
| GACCAAUCUGCCCUCAGAGCUCGAGAACAUCUUCGGAUGCAGAGGAGGCAGGCUUCGGUGGCCCGAUAGCGCCAACGUCCUCAACCUCCAAUGCAUUCCACCACAUGAUGAUGCCUGAAGAGCCUUGGUUUUUUG [G63C C97U] | -0.711 |
| GACCAAUCUGCCCUCAGAGCUCGAGAACAUCUUCGGAUGCAGAGGAGGCAGGCUUCGGUGGCCCGAUAGCGCCAACGUCCUCAACCUCCAAUCCAUUCCAUCACAUGAUGAUGCCUGAAGAGCCUUGGUUUUUUG [G63C G93C C97U C101U] | -1.93 |
| GACCAAUCUGCCCUCAGAGCUCGAGAACAUCUUCGGAUGCAGAGGAGGCAGGCUUCGGUGGCCCGAUAGCGACAACGUGCUCAACCUCCAAUGCAUCCCACCACAUGAUGAUGCCUGAAGAGCCUUGGUUUUUUG [G63C C72A C79G] | -5.56 |
| GACCAAUCUGCCCUCAGAGCUCGAGAACAUCUUCGGAUGCAGAGGAGGCAGGCUUCGGUGGCCCGAUAGCGCCAACGUCCUGAACCUCCAAUGCAUCCCACCACAUGAUGAUGCCUGAAGCGCCUUGCUUUUUUG [G63C C82G A121C G128C] | -1.24 |
| GACCAAUCUGCCCUCAGAGCUCGAGAACAUCUUCGGAUGCAGAGGAGGCAGGCUUCGGUGGCCCGAUAGCUCCAACGUCCUCAACCUCCAAUGCAACCCUCCACAUGAUGAUGCCUUAAGAGCCUUGGUUUUUGG [G63C G71U U96A A100U G117U U134G] | -5.35 |
| GACCAAUCUGCCCUCAGAGCUCGAGAACAUCUUCGGAUGCAGAGGAGGCAGGCUUCGGUGGCCCGAUAGCGCCAACGUCCUCAACCUCCAAUGCAUCCCACCAAAUGAUGAUGCCUGAAGAGCCUUGGUUUUUUG [G63C C104A] | -1.86 |
| GACCAAUCUGCCCUCAGAGCUCGAGAACAUCUUCGGAUGCAGAGGAGGCAGGCUUCGGUGGCCCGAUAGCGCCAACGUCCUCAACCUCCAAUGCAUCCCACCACAUGAUGAUGCCUGAAUAGCCUUGGUUUUUUG [G63C G120U] | -0.189 |
| GACCAAUCUGCCCUCAGAGCUCGAGAACAUCUUCGGAUGCAGAGGAGGCAGGCUUCGGUGGCCCGAUAGCGCCAACGUCCUCAACCUCCAAUGCAUCCCACCACAUGAUGAUGCCUGAAAAGCCUUGGUUUUUUG [G63C G120A] | 0.11 |
| GACCAAUCUGCCCUCAGAGCUCGAGAACAUCUUCGGAUGCAGAGGAGGCAGGCUUCGGUGGCCCGAUAGCGCCAACGUCCUCAACCUGCAAUGCAUCCCACCACAUGAUGAUGCCUGAAGAGCCUUGGUUUUUUG [G63C C88G] | -1.3 |
| GACCAAUCUGCCCUCAGAGCUCGAGAACAUCUUCGGAUGCAGAGGAGGCAGGCUUCGGUGGCCCGAUAGCGCCAACGUCCUCAACCUCCAAUGCAUCCCACCACAUGAUGGUGCCUGAAGAGCCCUGGUUUUUUG [G63C A111G U125C] | -1.75 |
| GACCAAUCUGCCCUCAGAGCUCGAGAACAUCUUCGGAUGCAGAGGAGGCAGGCUUCGGUGGCCCGAUAGCGCCAACGUCCUCAACCUCCAAUGCAUCCCACCACAUGAUGAUCCCUGAAGAGCCUUGGUUUUUUG [G63C G113C] | -3.38 |
| GACCAAUCUGCCCUCAGAGCUCGAGAACAUCUUCGGAUGCAGAGGAGGCAGGCUUCGGUGGCCCGAUAGCGCCAACGUCUUCAACCUCCAAUGCAUCCCACCACAUGAUGAUGCCUGCAAAGCCUUGGUUUUUUG [G63C C80U A118C G120A] | -3.34 |
| GACCAAUCUGCCCUCAGAGCUCGAGAACAUCUUCGGAUGCAGAGGAGGCAGGCUUCGGUGGCCCGAUAGCGCCAACGUCCUCAAGCUCCAAUGCAUCCCACAACAUGAUGAUGCCUGAAGAGCCUUGGUUUUUUG [G63C C85G C102A] | -2.51 |
| GACCAAUCUGCCCUCAGAGCUCGAGAACAUCUUCGGAUGCAGAGGAGGCAGGCUUCGGUGGCCCGAUAGCGCCAACGUCCUCAACCUCCAAUGCAUCCCACCACAUGAUGAUGCCUGAAGAGCCUUGGUUUUUUU [G63C G135U] | -1.25 |
| GACCAAUCUGCCCUCAGAGCUCGAGAACAUCUUCGGAUGCAGAGGAGGCAGGCUUCGGUGGCCCGAUAGCGCCAACGUCCUCAACCUCCAAUGCAUCCCACCACUUGAUGAUGCCUGAAGAGCCUUGGUUUUUUG [G63C A105U] | -2.44 |
| GACCAAUCUGCCCUCAGAGCUCGAGAACAUCUUCGGAUGCAGAGGAGGCAGGCUUCGGUGGCCCGAUAGCGCCAACGUCCUCAACCUCCAAUACAUCCCACCACAUGAUGAGGCCUGAAGAGCCUUGGUUUUUUG [G63C G93A U112G] | -0.619 |
| GACCAAUCUGCCCUCAGAGCUCGAGAACAUCUUCGGAUGCAGAGGAGGCAGGCUUCGGUGGCCCGAUAGCGCUAACGUCCUCAACCUCCAAUGCAUCCCACCACAUGAUGAUGCCUGAAGAGCCUUGGUUUUUUG [G63C C73U] | -0.69 |

| Variant | polymerase ribozyme fitness (log ratio) |
| --- | --- |
| GACCAAUCUGCCCUCAGAGCUCGAGAACAUCUUCGGAUGCAGAGGAGGCAGGCUUCGGUGGCCCGAUAGCGCCAACGUCCUCAACCUCAAAUGCAUCCCACCACAUGAUGAUGCCGGAAGAGCCUUGGUUUUUUG [G63C C89A U116G] | -4.71 |
| GACCAAUCUGCCCUCAGAGCUCGAGAACAUCUUCGGAUGCAGAGGAGGCAGGCUUCGGUGGCCCGAUAGCGCCAACGUCCUCAACUUCCAAUGCAUCCCACCACAUGAUGAUGCCUGAAAAGCCUUGGUUUUUUG [G63C C86U G120A] | -0.703 |
| GACCAAUCUGCCCUCAGAGCUCGAGAACAUCUUCGGAUGCAGAGGAGGCAGGCUUCGGUGGCCCGAUAGCGCCAACGUCCUCAACCUCCAAUGCAUCCCACCACAUGAUGCUGCCUGAAGCGCCUUGGUUUUUUG [G63C A111C A121C] | -0.162 |
| GACCAAUCUGCCCUCAGAGCUCGAGAACAUCUUCGGAUGCAGAGGAGGCAGGCUUCGGUGGCCCGAUAGCGCCAACGUCCUCAACCUCCAAUGCAUCCCACCACAUGAUGAUGCCUUAAGAGCCUUGGUUUUUUG [G63C G117U] | -2.64 |
| GACCAAUCUGCCCUCAGAGCUCGAGAACAUCUUCGGAUGCAGAGGAGGCAGGCUUCGGUGGCCCGAUAGCGGCAACGUCCUCAACCUCCAAUGCAUCCCACCACAUGAUGAUGCCUGAAGAGCCUUGGUUUUUUG [G63C C72G] | -5.46 |
| GACCAAUCUGCCCUCAGAGCUCGAGAACAUCUUCGGAUGCAGAGGAGGCAGGCUUCGGUGGCCCGAUAGCGCCAACGUCCUCAAGCCCCAAUGCAUCCCACCACAUGAUGAUGCCUGAAGAGCCUUGGUUUUUUG [G63C C85G U87C] | -2.82 |
| GACCAAUCUGCCCUCAGAGCUCGAGAACAUCUUCGGAUGCAGAGGAGGCAGGCUUCGGUGGCCCGAUAGCGCCAACGUCCUCAACCUCCAAUGCAUCCCACCACAUGAUGCUGCCUGAAGAGCCUUGGUUUUUUG [G63C A111C] | -0.587 |
| GACCAAUCUGCCCUCAGAGCUCGAGAACAUCUUCGGAUGCAGAGGAGGCAGGCUUCGGUGGCCCGAUAGCGCCAACGUCCUCAACCUCCAAUGAAUCCCACCACAUGAUGAAGCCAGAAGAGCCUUGGUUUUUUG [G63C C94A U112A U116A] | -2.14 |
| GACCAAUCUGCCCUCAGAGCUCGAGAACAUCUUCGGAUGCAGAGGAGGCAGGCUUCGGUGGCCCGAUAGCGCCAACGUCCUCAACCUCCAAUGCAUCCCACCACAUUAUGAUGCCUGAAGAGCCUUGGUUUUUUG [G63C G107U] | -5.92 |
| GACCAAUCUGCCCUCAGAGCUCGAGAACAUCUUCGGAUGCAGAGGAGGCAGGCUUCGGUGGCCCGAUAGCGCCAACGUCCUCAACCUCCAAUGCAUCGCACCACAUGAUGAUGCCAGAAGAGCGUUGGUUUUUUG [G63C C98G U116A C124G] | -5.39 |
| GACCAAUCUGCCCUCAGAGCUCGAGAACAUCUUCGGAUGCAGAGGAGGCAGGCUUCGGUGGCCCGAUAGCGCCAACGUCCUCAACCUCCAAUGCAUCCCACCACAUGAUGAUGCCUGAAGAGUCUUGGUUUUUUG [G63C C123U] | 0.859 |
| GACCAAUCUGCCCUCAGAGCUCGAGAACAUCUUCGGAUGCAGAGGAGGCAGGCUUCGGUGGCCCGAUAGCGCCAACGUCCUCAACCUCCAAUGCAUCCCACCACAUGAUGAUGCCUGAAGAGGCUUGGUUUUUUG [G63C C123G] | 0.737 |
| GACCAAUCUGCCCUCAGAGCUCGAGAACAUCUUCGGAUGCAGAGGAGGCAGGCUUCGGUGGCCCGAUAGCGCCAACGUCCUCAACCUCCAAUGCAUCCCACCACAUGAUGAUGCCUGAAGAGACUUGGUUUUUUG [G63C C123A] | 0.07 |
| GACCAAUCUGCCCUCAGAGCUCGAGAACAUCUUCGGAUGCAGAGGAGGCAGGCUUCGGUGGCCCGAUAGCGCGAACGUCCUCAACCUCCAAUGCAUCCCACCACAUGAUGAUGCGUGAAGAGCCUUGGUUUUUUG [G63C C73G C115G] | -5.56 |
| GACCAAUCUGCCCUCAGAGCUCGAGAACAUCUUCGGAUGCAGAGGAGGCAGGCUUCGGUGGCCUGAUAGCGCCAACGUCCUCAACCUCCAAUGCAUCCCACCACAUGAUGAUGCCUGGAGAGCCUUGGUUUUGUG [G63C C64U A118G U133G] | -4.77 |
| GACCAAUCUGCCCUCAGAGCUCGAGAACAUCUUCGGAUGCAGAGGAGGCAGGCUUCGGUGGCCCGAUAGCGCCAACGUCAUCAACCUCCAAUGCAUCCCACCACAUGAUGAUGCCUGAAGAGCCUUGGUUUUUUG [G63C C80A] | -3.71 |
| GACCAAUCUGCCCUCAGAGCUCGAGAACAUCUUCGGAUGCAGAGGAGGCAGGCUUCGGUGGCCCGAUAGCGCCAACGUCGUCAACCUCCAAUGCAUCCCACCACAUGAUGAUGCCUGAAGAGCCUUGGUUUUUUG [G63C C80G] | -6.96 |
| GACCAAUCUGCCCUCAGAGCUCGAGAACAUCUUCGGAUGCAGAGGAGGCAGGCUUCGGUGGCCCGAUAGCGCCAACGUCCUCAACCUCCAAUGCAUCCCACCACAUGAUGUUGCCUGAAGAACCUUGGUUUUUUG [G63C A111U G122A] | -5.6 |
| GACCAAUCUGCCCUCAGAGCUCGAGAACAUCUUCGGAUGCAGAGGAGGCAGGCUUCGGUGGCCCGAUAGCGCCAACGUCCUCAACCUCCAAUGCAUCCCAUCACAUGAUGAUGCCUGAAGAGCCUUGGUGUUUUG [G63C C101U U130G] | -0.981 |
| GACCAAUCUGCCCUCAGAGCUCGAGAACAUCUUCGGAUGCAGAGGAGGCAGGCUUCGGUGGCCCGAUAGCGCCAACGUUCUCAACCUCCAAUGCAUCCCACCACAUGAUGAUGCCUGAAGAGCCUUGGCUUUUUG [G63C C79U U129C] | -0.807 |
| GACCAAUCUGCCCUCAGAGCUCGAGAACAUCUUCGGAUGCAGAGGAGGCAGGCUUCGGUGGCCCGAUAGCGCCAACGUGCUCAACCUCCAAUGCAUCCCACCACAUGAUGAUGCCUGAAGAGUGUUGGUUUUUUG [G63C C79G C123U C124G] | 0.0911 |
